Source: patent US10208121B2, “Anti-Axl antagonistic antibodies” (BERGEN TEKNOLOGIOVERFORING AS, priority 2014, dated 2019)
“Also recorded” adds a separate entry of the source.

What was measured:
[1] = tested on: cyno-Axl (Axl receptor from cynomolgus monkey); experiment: Biacore binding analysis on immobilized cyno-Axl; design: species or system Macaca fascicularis; conditions: 10 μg/mL, 25° C.
Description: (§1) The sequence of Axl receptor from cynomolgus monkey (Macaca fascicularis; SEQ ID NO.43) was retrieved from WO2009062690A1. Based on the sequence, recombinant extracellular domain of cyno-Axl was generated by transient expression in CHO cells as a fusion protein with human Fc. The recombinant cyno-Axl-Fc was purified to homogeneity using Protein A-Sepharose (GE Healthcare). The binding experiments were performed using Biacore 3000 instrument (GE Healthcare) at 25° C. The soluble recombinant antigens corresponding to human Axl (rhAxl-Fc chimera; R&D Systems, Cat. no. 154-AL) and cyno-Axl were immobilized on the surface of CM5 sensor chip using amine coupling at the surface density of 775 and 880 RU, respectively. The Biacore runs were performed in an automatic mode using Binding analysis wizard.
(§2) The sample containing either MAb 10C9, MAb 10G5 or human Axl-specific MAb 5F11 (control) at concentration 10 μg/mL in HBS-EP buffer (GE Healthcare) was injected over the surfaces with immobilized antigens at flow rate of 30 μL/min for 3 min (association) followed by 5 min dissociation.

[2] = biological target: T1, human Axl (rhAxl-Fc chimera) (Homo sapiens, UniProt P30530); experiment: Biacore binding analysis on immobilized human Axl; conditions: 10 μg/mL, 25° C.
T1 construct: Soluble recombinant antigens corresponding to the extracellular domains of members of the human TAM receptor family; purchased R&D Systems 154-AL
Description: All binding experiments were performed using Biacore 3000 instrument (GE Healthcare) at 25° C. Soluble recombinant antigens corresponding to the extracellular domains of members of the human TAM receptor family, Axl (rhAxl-Fc chimera; R&D Systems, Cat. no. 154-AL), Mer (rhMer-Fc chimera; R&D Systems, Cat. no. 891-MR) and Tyro3 (rhTyro3/Dtk-Fc chimera; R&D Systems, Cat. no. 859-DK) were immobilized on the surface of CM5 sensor chip using amine coupling at the surface density of 393.0, 303.6 and 364.0 resonance units (RU), respectively. The Biacore run was performed in an automatic mode using Binding analysis wizard. Samples containing either MAb 10C9 or MAb 10G5 at concentration 10 μg/mL in HBS-EP buffer (GE Healthcare) were injected over the surfaces with immobilized antigens at flow rate of 30 μL/min for 3 min (association) followed by 5 min dissociation.
The binding experiments were performed using Biacore 3000 instrument (GE Healthcare) at 25° C. The soluble recombinant antigens corresponding to human Axl (rhAxl-Fc chimera; R&D Systems, Cat. no. 154-AL), mouse Axl (rmAxl-Fc chimera; R&D Systems, R&D Systems; Cat. no. 854-AX) and human Tyro3 (rhTyro3/Dtk-Fc chimera; R&D Systems, Cat. no. 859-DK) were immobilized on the surface of CM5 sensor chip using amine coupling at the surface density of 1,308.0, 2,115.9 and 1,429.0 RU, respectively. The Biacore runs were performed in an automatic mode using Binding analysis wizard.
as §2, with “recombinant mouse (rm) Axl-ligand Gas6 (R&D Systems, Cat. no. 986-GS/CF)” for “human Axl-specific MAb 5F11 (control)”
as §1, §2
In addition, the Axl-binding properties of the chimeric antibodies c10C9 and c10G5 were tested using Biacore 3000 instrument (GE Healthcare) and a sensor chip CM5 coated with human Axl (rhAxl-Fc chimera; R&D Systems, Cat. no. 154-AL) at the surface density of 1,308.0 RU. The Biacore runs were performed in an automatic mode using Binding analysis wizard. The samples comprising either the chimeric antibodies c10C9 and c10G5 or their murine counterparts at concentration 10 μg/mL in HBS-EP buffer (GE Healthcare) were injected over the surfaces with immobilized antigens at flow rate of 30 μL/min for 3 min (association) followed by 5 min dissociation.

[3] = biological target: T2, rhAxl-Fc chimera (recombinant human Axl) (Homo sapiens, UniProt P30530); experiment: Biacore surface plasmon resonance kinetic affinity determination on immobilized rhAxl-Fc; assay type: binding; conditions: for association rate (kon): human Axl, Examples 5 and 13; for Off-rate (koff; s^−1) / On-rate (kon; M^−1s^−1): rhAxl immobilized on sensor chip, 25° C., 1:1 Langmuir binding model
T2 construct: Soluble recombinant antigens corresponding to the extracellular domains of members of the human TAM receptor family; purchased R&D Systems 154-AL
Description: (§3) Kinetic analysis of MAbs 10C9 and 10G5 interacting with rhAxl immobilized on the surface of the Biacore sensor chip. Overlay plots of sensograms for different antibody concentrations (1.3-666.7 nM for 10C9 and 0.3-166.7 nM for 10G5) are shown. The precise kinetic analysis was performed using BIA evaluation software and curve fitting according to 1:1 Langmuir binding model.
as §3, with “chimeric antibodies c10C9” for “MAbs 10C9”, “c10G5” for “10G5”, “c10C9” for “10C9”, “c10G5)” for “10G5)”
(§4) Affinity determination of anti-Axl antibodies 10C9 and 10G5 was performed at 25° C. by surface plasmon resonance measurements using Biacore 3000 instrument (GE Healthcare). As a solid antigen-coated surface, a sensor chip CM5 with immobilized rhAxl-Fc chimera (R&D Systems, Cat. no. 154-AL) at density 190 RU was used.
(§5) For the kinetics measurements, different concentrations of anti-Axl antibodies (from 0.3 to 666.7 nM) in HBS-EP buffer (Biacore, Cat. no. BR-1001-88) were injected at flow rate of 30 μL/min with 3 min injection time followed by 5 min dissociation (buffer alone). After each cycle, the surface was regenerated by 30 sec injection of a regeneration solution (10 mM HCl, 1 M NaCl) at flow rate 50 μL/min.
The kinetic association (on-rate, kon) and dissociation (off-rate, koff) rates were calculated using BIAevaluation software and 1:1 Langmuir binding model. The equilibrium dissociation constant (KD) was calculated as the koff/kon ratio. The half-life (t1/2) of the formed antibody-antigen complexes was calculated as the ln 2/koff ratio.
as §4, with “of the chimeric” for “of”, “c10C9” for “10C9”, “c10G5” for “10G5”
as §5, with “333.3” for “666.7”

Sequence of cyno-Axl (Axl receptor from cynomolgus monkey) (as listed by the source): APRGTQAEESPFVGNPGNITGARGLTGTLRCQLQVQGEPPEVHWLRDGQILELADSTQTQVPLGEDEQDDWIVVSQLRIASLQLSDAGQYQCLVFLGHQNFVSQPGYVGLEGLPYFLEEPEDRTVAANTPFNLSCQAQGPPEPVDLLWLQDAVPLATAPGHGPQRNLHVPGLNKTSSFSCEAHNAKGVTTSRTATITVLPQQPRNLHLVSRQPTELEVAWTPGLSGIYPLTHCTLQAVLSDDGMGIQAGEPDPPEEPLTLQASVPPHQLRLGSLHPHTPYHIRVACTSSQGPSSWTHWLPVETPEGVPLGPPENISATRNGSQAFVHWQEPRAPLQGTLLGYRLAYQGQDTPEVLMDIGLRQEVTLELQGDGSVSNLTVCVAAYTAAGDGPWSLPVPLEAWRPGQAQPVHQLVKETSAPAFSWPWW

B1: 10C9: mouse anti-Axl monoclonal antibody from hybridoma UT-10C9-B9, IgG2b; VH SEQ ID NO: 3, VL SEQ ID NO: 4 (antibody, listed as Mus musculus, V domains shown)
VH: QVQLQQPGPELVKPGASVKISCKTSDYNFTRYYIHWVKQRPGQGLEWIGWIYPGTGDSKYNEKFKGRATLTADTSSSTAYMQLSSQTSEDSAVYFCARNGNYWYFDVWGAGTAVTVSS
VL: DIVMTQAAPSGPVTPGESVSISCRSSKSLLHSNGNTYLYWFLQRPGQSPQLLIYRMSNLASGVPDRFSGSGSGTAFTLRISRVEAEDVGIYYCMQHREYPFTFGGGTKLEIK
[1]
  binding to Axl from cynomolgus monkey: strong and specific interaction
[1]; listed as 1009
  binding to Axl from cynomolgus monkey: bind strongly
[2]
  binding to human Axl: specific binding; also recorded: strong and specific interaction
[2]; listed as 1009
  binding to human Axl: bind strongly
[3]
  association rate (kon): 1.61e+06 M⁻¹ s⁻¹
[3]; mouse MAbs
  Off-rate (koff; s^−1): 0.000289 s⁻¹
  On-rate (kon; M^−1s^−1): 1.61e+06 M⁻¹ s⁻¹

B2: 10G5: mouse anti-Axl monoclonal antibody from hybridoma WR-10G5-E5, IgG1; VH SEQ ID NO: 21, VL SEQ ID NO: 22 (antibody, listed as Mus musculus, V domains shown)
VH: QVQLQQSGAELVRPGASVKLSCKASGYSFTDFYINWVRQRPGQGLEWIARIFPGGDNTYYNEKFKGKATLTAEESSSTAYIQLSSLTSEDSAVYFCARRGLYYAMDYWGQGISVTVSS
VL: DVLMTQTPLSLPVSLGDQASISCRSSQSLVHSNGIPYLHWYLQKPGQSPKLLIYRVSNRFSGVPDRFSGSGSGTDFTLKISRVEAEDLGVYFCSQGTHVPPTFGGGTKLEIK
[1]
  binding to Axl from cynomolgus monkey: bind strongly; also recorded: strong and specific interaction
[2]
  binding to human Axl: bind strongly; also recorded: specific binding; also recorded: strong and specific interaction
[3]
  association rate (kon): 830000 M⁻¹ s⁻¹
[3]; mouse MAbs
  Off-rate (koff; s^−1): 0.000439 s⁻¹
  On-rate (kon; M^−1s^−1): 829000 M⁻¹ s⁻¹

B3: c10G5: chimeric (mouse variable/human constant) IgG1 variant of antibody 10G5 (antibody)
heavy: B2 VH
light: B2 VL
modifications: left off: a dimerising Fc or GST
notes: chimeric (mouse variable/human constant) IgG1 variant of antibody 10G5
[2]
  binding to human Axl: bind immobilized Axl with profiles very similar to the binding profiles of the corresponding mouse antibodies
[3]; chimeric antibodies
  Off-rate (koff; s^−1): 0.000169 s⁻¹
  On-rate (kon; M^−1s^−1): 1.64e+06 M⁻¹ s⁻¹
